A short description of this data set: yeast display, Sf9 membrane polyspecificity reagent, FACS + sequencing; frameworks hold sequencing errors. The method, boiled down: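 Nanobodies from a synthetic yeast display library (Saccharomyces cerevisiae BJ5465), induced 36–48 hours with galactose, were stained 1 hour at 4 °C with 10% biotinylated, detergent-solubilized Sf9 membrane reagent, enriched on streptavidin microbeads, then FACS-sorted. Anti-HA (expression) and streptavidin (reagent binding) fluorescence set low and high (top ~1%) gates. Polyreactivity labels come from the gate of origin. Genes were colony-PCR amplified, MiSeq 2 × 250 sequenced and filtered by CDR length.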
Take “QVQLVESGGGLVQAGGSLRLSCAASGLTIDRNAMGWYRQAPGKERELVAAINWRGSRTYYADSVKGRFTISRDNAKNTVYLQMNSLKPEDTAVYYCAADWHTTYDYWGQVTQVTVSS”: the “polyreactivity (PSR sort gate)” value was “high polyreactivity”.

On to “QVQLVESGGGLVQAGGSLRLSCAASGLTIRYNAMGWYRQAPGKERELVARISRNGGRTYYADSVKGRFTISRDNAKNTVYLQMKSLKPEDTAVNYCNVVYFVTTSPGYDYWGQGTQVTVSS”, for which the “polyreactivity (PSR sort gate)” value is “high polyreactivity”.

On to “QVQLVESGGGLVQAGGSLRLSCAASGLTISTYAMGWYIQAPGKDRELVATITYSGSSTYADSVKGRFTISRDNAKNTVYLQMNSLKPEDTAVYYCAAFTYHGNPSEYYPDTVGFYYWGQGTQVSVSS”, for which the “polyreactivity (PSR sort gate)” value is recorded as “low polyreactivity”.

Regarding “QVQLVESGGGLVQAGGSLRLSCAASGLTIVNYAMGWYRQAPGKERELVAAITVNGGRTYYADSVKGRFTISRDNAKNTVYLQMNSLKPEDTAVYYCAAVYYRHWYTYSSDYWGQGTQVTVSS”, the “polyreactivity (PSR sort gate)” value is reported as “high polyreactivity”.

Take “QVQLVESGGGLVQAGGSLRLSCAASGLTLAPYAMGWYRQAPGKERELVAVITRRGGRTYYADSVKGRFTISRDNAKNTVYLQMNSLKPEDTAVYYCNADTANYADGLDYWGQGTQVTVSS”: the “polyreactivity (PSR sort gate)” value was “low polyreactivity”.

“QVQLVESGGGLVQAGGSLRLSCAASGLTLFRNAMGWYRQAPGKERELVAAISSGGSTYYADSVKGRFTISRDNAKNTVYLQMNSLKPEDTAVYYCATDSVSPVEEEDYWGQGTQVTVSS”: the “polyreactivity (PSR sort gate)” value was “low polyreactivity”.

As to “QVQLVESGGGLVQAGGSLRLSCAASGLTLHGNAMGWYRQAPGKERELVATITSSGGSTFYADSVKGRFTISRDNAKNTVYLQMNSLKPEDTAVYYCNADAPYSDDYYVRFDYWGQGTQVTVSS”, the “polyreactivity (PSR sort gate)” value is reported as “low polyreactivity”.

As to “QVQLVESGGGLVQAGGSLRLSCAASGLTLQGYVMGWSRQAPGKDRELVATISYSGGSTRYADSVKGRFTISRDNAKNTVYLQMNSLNPEDTAVYYCNRDSFHYYAERDYWGQGTQVTVSS”, the “polyreactivity (PSR sort gate)” value is “low polyreactivity”.

Regarding “QVQLVESGGGLVQAGGSLRLSCAASGLTLQPYAMGWSRQAPRNERELVAAITSGGSTYYADSVKGRFTISRDNAKNTVYLQMNSLKPEDTAVYYCAATVSYDFGYVAVSYDYWGQGTQVTVSS”, the “polyreactivity (PSR sort gate)” value is “low polyreactivity”.

In the case of “QVQLVESGGGLVQAGGSLRLSCAASGLTLQRYTMGWYRQAPGKERELVAAISRSGGGTYYADSVKGRFTISRDNAKNTVYLQMNSLKPEDTAVYYCNKVRGAVPWFDMDYWGQGTQVTVSS”, the “polyreactivity (PSR sort gate)” value was “high polyreactivity”.

Regarding “QVQLVESGGGLVQAGGSLRLSCAASGLTLRNYAMGWYRQAPGKERELVAAITTGGGRTYYADSVKGRFTISRDNAKNTVYLQMNSLKPEDTAVYYCAAERAILSSDKQSLWRFDYWGQGTQVTVSS”, the “polyreactivity (PSR sort gate)” value is reported as “low polyreactivity”.

Regarding “QVQLVESGGGLVQAGGSLRLSCAASGLTLRRYAMGWYRQAPGKETELVAGITSGGSTYYADSVKGRFTISRDNAKNTVYLQMYSLKPEDTAVYYCAARVRKYYKPYGYWGQGTQVTVSS”, the “polyreactivity (PSR sort gate)” value is reported as “high polyreactivity”.

For the sequence “QVQLVESGGGLVQAGGSLRLSCAASGLTLSGNAMGWYRQAPGKERELVAAITGRGGSTTYADSVKGRFTISRDNAKNTVYLLMNSLKPEDTAVYYCAADGRWYWDYEYWGQGTQVTVSS”, the “polyreactivity (PSR sort gate)” value is “low polyreactivity”.

Consider “QVQLVESGGGLVQAGGSLRLSCAASGLTLSGYAMGWYRQAPGKERELVAAISYTGGSTYYADSVKGRFTISRDNAKNTVYLQMNSLKPEDTAVYYCAARAGSRSFDYWGQGTQVTVSS”, for which the “polyreactivity (PSR sort gate)” value was “high polyreactivity”.

For “QVQLVESGGGLVQAGGSLRLSCAASGLTLSYNAMGWYRQAPGKERELVAAIRSGGSTNYADSVKGRFTISRDNAKNTVYLQMNSLKPEDTAVYYCAARFRYLPYRYGRYQSGYEYWGQGTQVTVSS”, the “polyreactivity (PSR sort gate)” value is given as “high polyreactivity”.

For “QVQLVESGGGLVQAGGSLRLSCAASGLTLSYYAMGWYRQAPGKERELVATISWRTGSTYYADSVKGRFTISRDNAKNTVYLQMNSLKPEDTAVYYCNARGFQYSYSHLIYYPYDYWGQGTQVTVSS”, the “polyreactivity (PSR sort gate)” value is “high polyreactivity”.

Turning to “QVQLVESGGGLVQAGGSLRLSCAASGLTLVTYAMGSYRQAPGKERELVAAINSGGSTNYADSVKGRFTISRDNAKNTVYLQMNSLKPEDTAVYYCNADRVSPATYDYWGQGTQVTVSS”, the “polyreactivity (PSR sort gate)” value is “low polyreactivity”.

With “QVQLVESGGGLVQAGGSLRLSCAASGLTLVTYAMGWYRQAPGNERELVAAINSGGSTNYADSVKGRFTISRDNAKNTVYLQMNSLKPEDTAVYYCNADRVSPATYDYWGQGTQVTVSS”, the “polyreactivity (PSR sort gate)” value is recorded as “low polyreactivity”.

“QVQLVESGGGLVQAGGSLRLSCAASGLTLYGYTMGWYRQAPGKERELVATITTGGDSTYYADSVKGRFTISRDNAKNTVYLQMNSLKPEDTAVYYCAAYSYGWDYSYDYWGQGTQVTVSS”: the “polyreactivity (PSR sort gate)” value is “low polyreactivity”.

“QVQLVESGGGLVQAGGSLRLSCAASGLTLYKNGMGWYRQAPGKERELVAVISRSGGRTYYADSVKGRFTISRDNAKNTVYLQMNSLKPEDTAVYYCAAAWYSSSRYQGIYRFDYWGQGTQVTVSS”: the “polyreactivity (PSR sort gate)” value is given as “high polyreactivity”.

With “QVQLVESGGGLVQAGGSLRLSCAASGLTLYRNAMGWYRQAPGKERELVATINFSGGSKYYADSVKGRFTISRDNAKNTVYLQMNSLKPEDTAVYFCNARGYWHYSPTKFDYWGQGTQVTVSS”, the “polyreactivity (PSR sort gate)” value is on record as “low polyreactivity”.

With “QVQLVESGGGLVQAGGSLRLSCAASGLTLYTYAMGWYRQAPGKERELVAAISKNGGRTYYADSVKGRFTISRDNANNTVYLQMNSLKPEDTAVYYCAARARVGSVTFDYWGQGTQVTVSS”, the “polyreactivity (PSR sort gate)” value is “high polyreactivity”.

On to “QVQLVESGGGLVQAGGSLRLSCAASGLTLYYYAMGWYRQAPGKERELVAAINRGGSTYYSDSVKGRFTISRDNEKNTVYLLMNSLKPEDTAVYYCAVDYGVRDLTYYYCGQGTQVTVSS”, for which the “polyreactivity (PSR sort gate)” value is “low polyreactivity”.

As to “QVQLVESGGGLVQAGGSLRLSCAASGLTSHSYAMGWYRQAPGKERELVAAINGDGGSTYYADSVKGRFTISRDNAKNTVYLQMNSLKPEDTAVYYCAAQGNRPRGEYDYWGQGTQVTVSS”, the “polyreactivity (PSR sort gate)” value is on record as “high polyreactivity”.

For “QVQLVESGGGLVQAGGSLRLSCAASGLTSKFYAMGWYRQAPGKERELVAAISGSGGSTYYADSVKGRFTISRDKAKNTVYLQMNSLKPEDTAVYYCAARYFGLRYYYWGQGTQVTVSS”, the “polyreactivity (PSR sort gate)” value is “high polyreactivity”.

For “QVQLVESGGGLVQAGGSLRLSCAASGLTVKYYAMGWFRQAPGKERELAAIISFGGGSTYYADSVKGRFTISRDNAKNTVYLQMNSLKPEDTAVYYCNARLLFKYGYWGQGTQVTVSS”, the “polyreactivity (PSR sort gate)” value is reported as “high polyreactivity”.

For the sequence “QVQLVESGGGLVQAGGSLRLSCAASGLTVLQNAMGWYRQAPGKEWELVAAINIGTNTYADSVKGRFTSARDNAKNTVYLQMNSLKPEDTAVYYCATVDTVLVRPVGYDYWGQGTQVTVSS”, the “polyreactivity (PSR sort gate)” value is “low polyreactivity”.

In the case of “QVQLVESGGGLVQAGGSLRLSCAASGLTYADYAMGWYRQAPGKDRQLVAAISRRGGSTYYADSVKGRFTISRDKAKNTVYLQMNSLKPEDTAVYYCAAYAYDVAFKRYKFDYWGQGTLVTVSS”, the “polyreactivity (PSR sort gate)” value was “high polyreactivity”.

“QVQLVESGGGLVQAGGSLRLSCAASGMGWYRQAPGKERELVAAITSGDSTNYADSVKGRFTISRDNAKNTVYLQMNSLKPEDTAVYYCAADPDYLYAYYYWGQGSQVTVSS”: the “polyreactivity (PSR sort gate)” value is “low polyreactivity”.

Regarding “QVQLVESGGGLVQAGGSLRLSCAASGMGWYRQAPGKERELVAAITSGDSTNYADSVKGRFTISRDNAKNTVYLQMNSLKPEDTAVYYCAADPDYLYAYYYWGQGTQVTVSS”, the “polyreactivity (PSR sort gate)” value is “low polyreactivity”.

With “QVQLVESGGGLVQAGGSLRLSCAASGMGWYRQAPGKERELVATITWSDGITYADSVKGRFTISRDNAKNTVYLQMNSLKPEDTAVYYCNADWDQTGTVFYSFGMREMDSWGQGTQVTVSS”, the “polyreactivity (PSR sort gate)” value is “low polyreactivity”.

Regarding “QVQLVESGGGLVQAGGSLRLSCAASGMIFQDNAMGWYSQAPGKERELVAAITTGGITYYADSVKGRFTISRDNAKNTVYLQMNSLKPEDTAVYYCATDPVKSGYQRYYYWGQGTQVTVSS”, the “polyreactivity (PSR sort gate)” value is “low polyreactivity”.

Consider “QVQLVESGGGLVQAGGSLRLSCAASGMTFFTYSMGWYRQAPGKERELVAAISGSGGSTYYADSVKGRFTISRDNAKNTVYLQMNSLKPEDTAVYYCAKRSWIVYDYWGQGTQVTVSS”, for which the “polyreactivity (PSR sort gate)” value was “low polyreactivity”.

Regarding “QVQLVESGGGLVQAGGSLRLSCAASGMVWYRQAPGKERELVAAITSGDSTNYADSVKGRFTISRDNAKNTVYLQMNCLKPEDTSVYYCAADPDYLYAYFYWGQGTQVSVSS”, the “polyreactivity (PSR sort gate)” value is recorded as “low polyreactivity”.

Take “QVQLVESGGGLVQAGGSLRLSCAASGNAMGWYRQAPGKERELVAAITYGGTTTYYADSVKGRFTISRDNAKNTVYLQMNSLKPEDTAVYYCAADYVFVATPLRYDYWGQGTQVTVSS”: the “polyreactivity (PSR sort gate)” value is given as “low polyreactivity”.

On to “QVQLVESGGGLVQAGGSLRLSCAASGNICITYAMGWYRQAPGKEREFVAAISRRRGRTYYADSVKARFTISRDKAKNTVYLQMNSLKPVDTAVYYCAADPATSVYGGLNYWGQVTQVTVSS”, for which the “polyreactivity (PSR sort gate)” value is “high polyreactivity”.

In the case of “QVQLVESGGGLVQAGGSLRLSCAASGNIFANYAMGWYRQAPGKERELVAAIRWSASRTYYADSVKGRFTISRDNAKNTVYLQMNSLIPEDTAVYYCAATIYTFWDYYYDYWGQGTQVTVSS”, the “polyreactivity (PSR sort gate)” value is “high polyreactivity”.

For “QVQLVESGGGLVQAGGSLRLSCAASGNIFAPNAMGWDRQAPGKERELVAAISRSGGSTHYADSVKGRFTISRDNAKNTVYLQMNSLKPEDTAVYYCAAGWYGRYTSKMGYWGQGTQVTVSS”, the “polyreactivity (PSR sort gate)” value is on record as “high polyreactivity”.

“QVQLVESGGGLVQAGGSLRLSCAASGNIFAWYAMGWYRQAPGKERELVADISSRGGSSYYADSVKGRFTISRDTAKNTVYLQMNSLKPEDTAVYYCAAVWYWTQDYDYWGQGTQVTVSS”: the “polyreactivity (PSR sort gate)” value was “low polyreactivity”.

Regarding “QVQLVESGGGLVQAGGSLRLSCAASGNIFDGNAMGWYRQAPGKERELVAAITSSGDSTYYADSVKGRFTISRDNAKNTVYLLMNSLKPEDTAVYYCAAGYRWGYYYWGQGTQVTVSS”, the “polyreactivity (PSR sort gate)” value is on record as “high polyreactivity”.

On to “QVQLVESGGGLVQAGGSLRLSCAASGNIFDGNSMGWYRQAPGKERELVAAITGRGGGTYYADSVKGRFTISRDNAKNTVYLQMNSLKPEDTAVYYCAAPWVVRRTAYDYWGQGTQVTVSS”, for which the “polyreactivity (PSR sort gate)” value is “high polyreactivity”.

The record behind these values is the nanobody polyreactivity screen of Harvey et al. (2022).
